From PMC2716121 (Journal of molecular biology, 2009)
Values belong to the molecule of their own block, whether it stands above or below them.

What was measured:
Experiment in all cases: AUC
[1] = target: PhoB^F20D, phosphorylated (Escherichia coli) (UniProt P0AFJ5)
[2] = target: Wild-type PhoB, phosphorylated (Escherichia coli) (UniProt P0AFJ5)
[3] = target: Wild-type PhoB, unphosphorylated (Escherichia coli) (UniProt P0AFJ5)
AUC = target: the molecule itself

B1: PhoB^R91E/E111R, unphosphorylated (natural protein, Escherichia coli, UniProt P0AFJ5 1-229, looked up)
chain: MARRILVVEDEAPIREMVCFVLEQNGFQPVEAEDYDSAVNQLNEPWPDLILLDWMLPGGSGIQFIKHLKRESMTRDIPVVMLTARGEEEDEVRGLETGADDYITKPFSPKRLVARIKAVMRRISPMAVEEVIEMQGLSLDPTSHRVMAGEEPLEMGPTEFKLLHFFMTHPERVYSREQLLNHVWGTNVYVEDRTVDVHIRRLRKALEPGGHDRMVQTVRGTGYRFSTRF
binding result (AUC): binds

B2: PhoB^R91E/E111R, phosphorylated (natural protein, Escherichia coli, UniProt P0AFJ5 1-229, looked up)
chain: MARRILVVEDEAPIREMVCFVLEQNGFQPVEAEDYDSAVNQLNEPWPDLILLDWMLPGGSGIQFIKHLKRESMTRDIPVVMLTARGEEEDEVRGLETGADDYITKPFSPKRLVARIKAVMRRISPMAVEEVIEMQGLSLDPTSHRVMAGEEPLEMGPTEFKLLHFFMTHPERVYSREQLLNHVWGTNVYVEDRTVDVHIRRLRKALEPGGHDRMVQTVRGTGYRFSTRF
modifications: phosphorylated at D53 (site of phosphorylation) with phosphoramidate; 100% phosphorylated at steady state
binding result (AUC): binds

More lines, now with the values ahead:

Kd [1]: 2.8 µM
Molecule: PhoB^F20D, phosphorylated (from UniProt P0AFJ5 1-229) (natural protein)

Kd [2]: 5.1 µM
Molecule: Wild-type PhoB, phosphorylated (from UniProt P0AFJ5 1-229) (natural protein)

Kd [3]: 378 µM
Molecule: Wild-type PhoB, unphosphorylated (from UniProt P0AFJ5 1-229) (natural protein)
